Source: the supplement of paper PMC9170038

Legend:
[1] = system: MS2 coat protein; test: apparent KD of MS2 coat protein, switch ON state; designed switch direction (-1 OFF switch, 1 ON switch): -1; higher = weaker reporter binding; conditions: FMN input: 0 or 200 uM; Eterna round: R93 (includes R88 designs)
Method in brief: (§1)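 Each design's apparent KD comes from the median of binding-curve fits to its normalised clusters. Those clusters carried RNA switches transcribed on-chip from Illumina sequencing clusters. SNAP-549-labelled MS2 coat protein was titrated onto them in twofold steps (0.7 or 1.5 nM to 3 µM; per step 0.8–1.5 h down to 10–20 min). Conditions were 100 mM Tris-HCl pH 7.5, 80 mM KCl, 4 mM MgCl2, without or with constant ligand.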

[2] = system: MS2 coat protein; test: apparent KD of MS2 coat protein, switch OFF state (with FMN for OFF switches, without FMN for ON switches); designed switch direction (-1 OFF switch, 1 ON switch): -1; higher = weaker reporter binding; conditions: FMN input: 0 or 200 uM; Eterna round: R93 (includes R88 designs)
Method in brief: as §1

Row | Sequence | apparent KD of MS2 coat protein [1] | apparent KD of MS2 coat protein [2]
1 | AACAGUACAGGAUAUACAUGAGGAUCACCCAUGUAAAAAAAGGGUGGCGUACCACAAAGUAGAAGGGUACUGGA [Moding Maslow revisited (73) 10] | 0.109 µM | 0.0441 µM
2 | AAGAAACAUGAGGAUCACCCAUGUCAGGAUAUCGAAAAGAAAAGAAAAGAAAGAAGAACGAGAAGGGACAAAGG [Qakare Ibi] | 0.0596 µM | 0.0678 µM
3 | AAAAAACAUGAGGAUCACCCAUGUGAGGAUAUGAUGCGAAUAAAGAAAGAAGAAAGCAUCAGAAGGCACAAAAA [58%, Disencluded 3, 2] | 0.0258 µM | 0.0435 µM
4 | AGAAAGUGAGGAUAUACAUGAGGAUCACCCAUGUAGAACGAGAGUUAUAAAAAUGGAAGUAGAAGGCACAAAAG [Meechl MS2 Ex3] | 0.0283 µM | 0.0328 µM
5 | CAAAGGUGAGGAUAUACAAAAAAAUGACGAAAGUCAUCCACACAUGAGGAUCACCCAUGUAGAAGGCACCACAA [E2 64% 6] | 0.03 µM | 0.0292 µM
6 | GGAAAGCGAGGAUAUACAUGAGGAUCACCCAUGUAAACAAACAAACAAACAAACAAAUGUAGAAGGCGCAAAAC [Exclusion 3 Strange] | 0.049 µM | 0.0506 µM
7 | GAAAAGUGAGGAUAUGUCAAAAGUCACAAAAGUGACAAAAGACAGAAGGCACAUGAGGAUCACCCAUGUGGGAA [Mat - Exaclusion 4 - Eli mod - D50] | 0.0585 µM | 0.211 µM
8 | AAGAACAUAGGAUAUACAAAAUAAAAGAAAAGAAAGAAAGAACAUGAGGAUCACCCAUGUAGAAGGAUGAAGAA [Khakaure Senusret III] | 0.039 µM | 0.0244 µM
9 | CACGGACAUGAGGAUCACCCAUGUGAGGAUAUGCUCUACGAACGUUUUCCCACGAGAAGCAGAAGGCACAUUUC [try 2] | 0.0426 µM | 0.0908 µM
10 | AAAAAGGAAGGAUAUACGAACAUGUCGAAAGACGUGAAGGGACAUGAGGAUCACCCAUGUAGAAGGUCCAAAAA [Mat - Exclusion 2 - JL mod - D79] | 0.0472 µM | 0.0458 µM
11 | AGGUACCUAGGAUAUACAUGAGGAUCACCCAUGUCACAAAUAAAACACAGGUAUCCUGGUAGAAGGAGGAACAA [Veinle] | 0.0241 µM | 0.0365 µM
12 | CUCUAGUGAGGAUAUGCAAGAAAAGAAGAGAAAGAAAAGAAGCAGAAGGCACAUGAGGAUCACCCAUGUAAGAA [EteRNA is fun!] | 0.0324 µM | 0.0718 µM
13 | AAAAAACAUGAGGAUCACCCAUGUAAGGAUAUGUAAAAUAAAAGAAAAAUAAAGAAAAGCAGAAGGUACAAAAA [JL wbt mod 19] | 0.0259 µM | 0.025 µM
14 | AAAAGUGGAGGAUAUACAUGAGGAUCACCCAUGUGUAAAAAUAAAAACACAAAAGAAAGUAGAAGGCCACAAAG [Mat - Exclusion 3 - Mayanna mod - D115] | 0.0194 µM | 0.0552 µM
15 | AGGAAACAUGAGGAUCACCCAUGUUAGGAUAUGAACGAAAAUAAAUAAAAAUAAAAGUUCAGAAGGAACAAAAA [66%, Wbt, 18] | 0.027 µM | 0.0419 µM
16 | GGAAAACAUGAGGAUCACCCAUGUCAGGAUAUACAAAGAAAGAAAGAAAAGAAAGAAAGUAGAAGGGACUAAAG [Amethyst 16] | 0.0204 µM | 0.0379 µM
17 | AAAAAGUCAGGAUAUACGUACAUGUCGAAAGACGUGAAGGGACAUGAGGAUCACCCAUGUAGAAGGGACAAGAA [Mat - Exclusion 2 - JL mod - D78] | 0.0996 µM | 0.0918 µM
18 | AAAACUGGAGGAUAUACGUACAUGUCGAAAGACGUGAAGGGACAUGAGGAUCACCCAUGUAGAAGGCUAGAAAA [Mat - Exclusion 2 - JL mod - D71] | 0.0531 µM | 0.0876 µM
19 | AAAAAGUCAGGAUAUGCAUGAGCAAAAAAAAAAAAGCUCAUGCAGAAGGGACAUGAGGAUCACCCAUGUAAAAA [Ex 4 May 10] | 0.0702 µM | 0.0486 µM
